In PMC8973899:

Target: BD-GmSPX8 (soybean (Glycine max))

AD-GmPTF1 (natural protein) was tested, and the luciferase (LUC) signal of E-box-LUC in N. benthamiana leaves with PSK-GmPTF1 and PSK-GmSPX8 against PSK-GmPTF1 alone was 50% and the β-galactosidase activity of yeast cells AH109 with pGBKT7-BD-GmPTF1 and pGADT7-AD-GmSPX8 against pGBKT7-BD-GmPTF1 alone was 2 times.
